Experimental findings from publication PMC2783235 are described below.

The target in test [1] is L289C (single-Cys mutant of FT-HT-Xa) (S. cerevisiae) (UniProt D6VTK4). The test is described as follows: cross-linking.
Test [2] has the same target. Description: cross-linking. This is another data set of the same source.
The target is the same in test [3]. Description: SDS-PAGE and western blot of membranes. (Immunoblotting shows a protein as a band on a membrane.)
Test [4] has the same target. The test is described as follows: cross-linking. This is another data set of the same source.
Test [5] concerns the target A296C (single-Cys mutant of FT-HT-Xa) (S. cerevisiae) (UniProt D6VTK4). The test is described as follows: cross-linking.
The target is the same in test [6]. The test is described as follows: cross-linking. The source holds these as a separate data set.
Test [7] shares this target. Description: SDS-PAGE and western blot of membranes.
Test [8] shares this target. The test is described as follows: cross-linking. This is another data set of the same source.
In test [9] the target is L291C (single-Cys mutant of FT-HT-Xa) (S. cerevisiae) (UniProt D6VTK4). Description: cross-linking.
Test [10] has the same target. The test is described as follows: cross-linking. This is another data set of the same source.
Test [11] shares this target. Description: SDS-PAGE and western blot of membranes.
For test [12] the target is unchanged. Description: cross-linking. This is another data set of the same source.
Test [13] has as its target L64C (single-Cys mutant of FT-HT-Xa) (S. cerevisiae) (UniProt D6VTK4). Description: cross-linking.
For test [14] the target is unchanged. The test is described as follows: cross-linking. This is another data set of the same source.
For test [15] the target is unchanged. Description: SDS-PAGE and western blot of membranes.
The target is the same in test [16]. The test is described as follows: cross-linking. The source holds these as a separate data set.
Test [17] addresses T65C (single-Cys mutant of FT-HT-Xa) (S. cerevisiae) (UniProt D6VTK4). Description: cross-linking.
Test [18] has the same target. Description: cross-linking. This is another data set of the same source.
Test [19] has the same target. Description: SDS-PAGE and western blot of membranes.
Test [20] shares this target. Description: cross-linking. The source holds these as a separate data set.
In test [21] the target is S292C (single-Cys mutant of FT-HT-Xa) (S. cerevisiae) (UniProt D6VTK4). Description: cross-linking.
For test [22] the target is unchanged. Description: cross-linking. The source holds these as a separate data set.
Test [23] shares this target. The test is described as follows: SDS-PAGE and western blot of membranes.
Test [24] shares this target. The test is described as follows: cross-linking. This is another data set of the same source.
In test [25] the target is W295C (single-Cys mutant of FT-HT-Xa) (S. cerevisiae) (UniProt D6VTK4). The test is described as follows: cross-linking.
Test [26] has the same target. Description: cross-linking. This is another data set of the same source.
Test [27] has the same target. Description: SDS-PAGE and western blot of membranes.
Test [28] shares this target. Description: cross-linking. The source holds these as a separate data set.
Test [29] addresses M294C (single-Cys mutant of FT-HT-Xa) (S. cerevisiae) (UniProt D6VTK4). The test is described as follows: cross-linking.
Test [30] has the same target. Description: cross-linking. The source holds these as a separate data set.
Test [31] shares this target. Description: SDS-PAGE and western blot of membranes.
Test [32] has the same target. The test is described as follows: cross-linking. The source holds these as a separate data set.
The target of test [33] is S293C (single-Cys mutant of FT-HT-Xa) (S. cerevisiae) (UniProt D6VTK4). The test is described as follows: cross-linking.
Test [34] shares this target. Description: cross-linking. This is another data set of the same source.
Test [35] has the same target. The test is described as follows: SDS-PAGE and western blot of membranes.
Test [36] has the same target. Description: cross-linking. This is another data set of the same source.

In the case of “L289C (single-Cys mutant of FT-HT-Xa) (from UniProt D6VTK4 1-431) (receptor)”, the percent dimer in test [1] came out at 50.2%; in test [2], 61%; in test [3], 26.8%; in test [4], 40.9%.
As for “A296C (single-Cys mutant of FT-HT-Xa) (from UniProt D6VTK4 1-431) (receptor)”, the percent dimer in test [5] amounted to 73.6%; in [6], 91.1%; in [7], 14.8%; in test [8] it was 82.1%.
For the substance “L291C (single-Cys mutant of FT-HT-Xa) (from UniProt D6VTK4 1-431) (receptor)”, the percent dimer came to 52% in [9], 66.4% in test [10], 31.8% in test [11] and 44.5% in test [12].
For “L64C (single-Cys mutant of FT-HT-Xa) (from UniProt D6VTK4 1-431) (receptor)”, the percent dimer in [13] came to 14.6%; in test [14] it was 11.3%; in test [15], 15.8%; in test [16], 13.6%.
Turning to “T65C (single-Cys mutant of FT-HT-Xa) (from UniProt D6VTK4 1-431) (receptor)”, the percent dimer in test [17] was found to be 15.9%; in test [18], 14.4%; in [19], 16.2%; in test [20], 12.8%.
As for “S292C (single-Cys mutant of FT-HT-Xa) (from UniProt D6VTK4 1-431) (receptor)”, the percent dimer in test [21] amounted to 75.5%; in test [22], 82.3%; in [23], 30.2%; in test [24], 65.9%.
With “W295C (single-Cys mutant of FT-HT-Xa) (from UniProt D6VTK4 1-431) (receptor)”, the percent dimer in [25] was found to be 76.2%; in test [26] it was 95.2%; in test [27] it was 15.7%; in [28], 86.3%.
Turning to “M294C (single-Cys mutant of FT-HT-Xa) (from UniProt D6VTK4 1-431) (receptor)”, the percent dimer in test [29] was found to be 57.8%; in test [30] it was 75.6%; in [31], 27%; in test [32], 50.8%.
With “S293C (single-Cys mutant of FT-HT-Xa) (from UniProt D6VTK4 1-431) (receptor)”, the percent dimer in test [33] was 38.5%; in test [34] it was 70.2%; in [35], 21.1%; in test [36], 44%.
